B1: Storkhead-box protein 2, residues 64 to 141; numbered along this chain, Q9P2F5 (parent)
chain: SPISQSQFIPLGEILCLAISAMNSARKPVTQEALMEHLTTCFPGVPTPSQEILRHTLNTLVRERKIYPTPDGYFIVTP

± gives the uncertainty stated by the source.

This data set covers variants of B1. In words: abundance fitness (aPCA) (normalised: wild type 0, dead -1); higher = more abundant; growth selection in yeast, the domain comes from the species named. The settings on record: Homo sapiens.
SPISQSQFIPLGEILCLAISAMNSARKPVTQEALMEHLTTCFPGVPTPSQEIERHTLNTLVRERKIYPTPDGYFIVTP [L53E]: the abundance fitness was -0.929 ± 0.15.

Consider SPISQSQFIPLGEILCLAISAMNSARKPVTQEALMEHLTTCFPGVPTPSQEIGRHTLNTLVRERKIYPTPDGYFIVTP [L53G], for which the abundance fitness is -0.856 ± 0.068.

For the variant SPISQSQFIPLGEILCLAISAMNSARKPVTQEALMEHLTTCFPGVPTPSQEIIRHTLNTLVRERKIYPTPDGYFIVTP [L53I], the abundance fitness is -0.007 ± 0.11.

With SPISQSQFIPLGEILCLAISAMNSARKPVTQEALMEHLTTCFPGVPTPSQEICRHTLNTLVRERKIYPTPDGYFIVTP [L53C], the abundance fitness was -0.113 ± 0.14.

For SPISQSQFIPLGEILCLAISAMNSARKPVTQEALMEHLTTCFPGVPTPSQEIFRHTLNTLVRERKIYPTPDGYFIVTP [L53F], the abundance fitness is -0.113 ± 0.12.

On to SPISQSQFIPLGEILCLAISAMNSARKPVTQEALMEHLTTCFPGVPTPSQEIDRHTLNTLVRERKIYPTPDGYFIVTP [L53D], for which the abundance fitness is -0.747 ± 0.4.

For the variant SPISQSQFIPLGEILCLAISAMNSARKPVTQEALMEHLTTCFPGVPTPSQEIHRHTLNTLVRERKIYPTPDGYFIVTP [L53H], the abundance fitness is -0.756 ± 0.18.

Consider SPISQSQFIPLGEILCLAISAMNSARKPVTQEALMEHLTTCFPGVPTPSQEIARHTLNTLVRERKIYPTPDGYFIVTP [L53A], for which the abundance fitness is -0.124 ± 0.058.

As for SPISQSQFIPLGEILCLAISAMNSARKPVTQEALMEHLTTCFPGVPTPNQEILRHTLNTLVRERKIYPTPDGYFIVTP [S49N], the abundance fitness was -0.173 ± 0.11.

Turning to SPISQSQFIPLGEILCLAISAMNSARKPVTQEALMEHLTTCFPGVPTPQQEILRHTLNTLVRERKIYPTPDGYFIVTP [S49Q], the abundance fitness is -0.265 ± 0.082.

For the variant SPISQSQFIPLGEILCLAISAMNSARKPVTQEALMEHLTTCFPGVPTPLQEILRHTLNTLVRERKIYPTPDGYFIVTP [S49L], the abundance fitness was -0.684 ± 0.055.

Turning to SPISQSQFIPLGEILCLAISAMNSARKPVTQEALMEHLTTCFPGVPTPIQEILRHTLNTLVRERKIYPTPDGYFIVTP [S49I], the abundance fitness is -0.835 ± 0.12.

As for SPISQSQFIPLGEILCLAISAMNSARKPVTQEALMEHLTTCFPGVPTPPQEILRHTLNTLVRERKIYPTPDGYFIVTP [S49P], the abundance fitness is -0.27 ± 0.045.

Regarding SPISQSQFIPLGEILCLAISAMNSARKPVTQEALMEHLTTCFPGVPTPTQEILRHTLNTLVRERKIYPTPDGYFIVTP [S49T], the abundance fitness is -0.16 ± 0.055.

Take SPISQSQFIPLGEILCLAISAMNSARKPVTQEALMEHLTTCFPGVPTPKQEILRHTLNTLVRERKIYPTPDGYFIVTP [S49K]: the abundance fitness is -0.139 ± 0.055.

On to SPISQSQFIPLGEILCLAISAMNSARKPVTQEALMEHLTTCFPGVPTPRQEILRHTLNTLVRERKIYPTPDGYFIVTP [S49R], for which the abundance fitness was -0.21 ± 0.036.

In the case of SPISQSQFIPLGEILCLAISAMNSARKPVTQEALMEHLTTCFPGVPTPVQEILRHTLNTLVRERKIYPTPDGYFIVTP [S49V], the abundance fitness is -0.575 ± 0.043.

On to SPISQSQFIPLGEILCLAISAMNSARKPVTQEALMEHLTTCFPGVPTPMQEILRHTLNTLVRERKIYPTPDGYFIVTP [S49M], for which the abundance fitness is -0.68 ± 0.1.

On to SPISQSQFIPLGEILCLAISAMNSARKPVTQEALMEHLTTCFPGVPTPSVEILRHTLNTLVRERKIYPTPDGYFIVTP [Q50V], for which the abundance fitness was -0.131 ± 0.059.

For SPISQSQFIPLGEILCLAISAMNSARKPVTQEALMEHLTTCFPGVPTPSTEILRHTLNTLVRERKIYPTPDGYFIVTP [Q50T], the abundance fitness is -0.08 ± 0.086.

As for SPISQSQFIPLGEILCLAISAMNSARKPVTQEALMEHLTTCFPGVPTPSNEILRHTLNTLVRERKIYPTPDGYFIVTP [Q50N], the abundance fitness was -0.08 ± 0.16.

On to SPISQSQFIPLGEILCLAISAMNSARKPVTQEALMEHLTTCFPGVPTPSIEILRHTLNTLVRERKIYPTPDGYFIVTP [Q50I], for which the abundance fitness was 0.047 ± 0.12.

With SPISQSQFIPLGEILCLAISAMNSARKPVTQEALMEHLTTCFPGVPTPSWEILRHTLNTLVRERKIYPTPDGYFIVTP [Q50W], the abundance fitness is -0.082 ± 0.067.

Turning to SPISQSQFIPLGEILCLAISAMNSARKPVTQEALMEHLTTCFPGVPTPSREILRHTLNTLVRERKIYPTPDGYFIVTP [Q50R], the abundance fitness was -0.036 ± 0.043.

SPISQSQFIPLGEILCLAISAMNSARKPVTQEALMEHLTTCFPGVPTPSFEILRHTLNTLVRERKIYPTPDGYFIVTP [Q50F]: the abundance fitness came out at 0.013 ± 0.16.

In the case of SPISQSQFIPLGEILCLAISAMNSARKPVTQEALMEHLTTCFPGVPTPSAEILRHTLNTLVRERKIYPTPDGYFIVTP [Q50A], the abundance fitness is -0.011 ± 0.053.

Consider SPISQSQFIPLGEILCLAISAMNSARKPVTQEALMEHLTTCFPGVPTPSYEILRHTLNTLVRERKIYPTPDGYFIVTP [Q50Y], for which the abundance fitness is 0.174 ± 0.19.

As for SPISQSQFIPLGEILCLAISAMNSARKPVTQEALMEHLTTCFPGVPTPSKEILRHTLNTLVRERKIYPTPDGYFIVTP [Q50K], the abundance fitness is -0.014 ± 0.097.

For the variant SPISQSQFIPLGEILCLAISAMNSARKPVTQEALMEHLTTCFPGVPTPSGEILRHTLNTLVRERKIYPTPDGYFIVTP [Q50G], the abundance fitness was 0.053 ± 0.044.

SPISQSQFIPLGEILCLAISAMNSARKPVTQEALMEHLTTCFPGVPTPSMEILRHTLNTLVRERKIYPTPDGYFIVTP [Q50M]: the abundance fitness was 0.036 ± 0.083.

As to SPISQSQFIPLGEILCLAISAMNSARKPVTQEALMEHLTTCFPGVPTPSPEILRHTLNTLVRERKIYPTPDGYFIVTP [Q50P], the abundance fitness is -0.055 ± 0.081.

For SPISQSQFIPLGEILCLAISAMNSARKPVTQEALMEHLTTCFPGVPTPSCEILRHTLNTLVRERKIYPTPDGYFIVTP [Q50C], the abundance fitness was -0.076 ± 0.1.

SPISQSQFIPLGEILCLAISAMNSARKPVTQEALMEHLTTCFPGVPTPSDEILRHTLNTLVRERKIYPTPDGYFIVTP [Q50D]: the abundance fitness turned out to be 0.118 ± 0.15.

For the variant SPISQSQFIPLGEILCLAISAMNSARKPVTQEALMEHLTTCFPGVPTPSSEILRHTLNTLVRERKIYPTPDGYFIVTP [Q50S], the abundance fitness is -0.034 ± 0.069.

As to SPISQSQFIPLGEILCLAISAMNSARKPVTQEALMEHLTTCFPGVPTPSHEILRHTLNTLVRERKIYPTPDGYFIVTP [Q50H], the abundance fitness was -0.022 ± 0.1.

The values are drawn from the Human Domainome abundance scans (Beltran et al. 2025).
